# From publication PMC2873289, “A Helix Replacement Mechanism Directs Metavinculin Functions” (PLoS ONE, 2010)
# T1: metavinculin-ΔH1 (lacking residues 895–915) (human, UniProt P18206 1-1134, lacking residues 895–915)
# T1 construct: human metavinculin, full length (1-1,134) lacking residues 895-915 (α-helix H1): 1-894 joined to 916-1,134; also called MV-ΔH1; source: E. coli BL21-DE3, purified (as full-length metavinculin); not shown: His8, N-terminal, kept
# T1 sequence (looked up): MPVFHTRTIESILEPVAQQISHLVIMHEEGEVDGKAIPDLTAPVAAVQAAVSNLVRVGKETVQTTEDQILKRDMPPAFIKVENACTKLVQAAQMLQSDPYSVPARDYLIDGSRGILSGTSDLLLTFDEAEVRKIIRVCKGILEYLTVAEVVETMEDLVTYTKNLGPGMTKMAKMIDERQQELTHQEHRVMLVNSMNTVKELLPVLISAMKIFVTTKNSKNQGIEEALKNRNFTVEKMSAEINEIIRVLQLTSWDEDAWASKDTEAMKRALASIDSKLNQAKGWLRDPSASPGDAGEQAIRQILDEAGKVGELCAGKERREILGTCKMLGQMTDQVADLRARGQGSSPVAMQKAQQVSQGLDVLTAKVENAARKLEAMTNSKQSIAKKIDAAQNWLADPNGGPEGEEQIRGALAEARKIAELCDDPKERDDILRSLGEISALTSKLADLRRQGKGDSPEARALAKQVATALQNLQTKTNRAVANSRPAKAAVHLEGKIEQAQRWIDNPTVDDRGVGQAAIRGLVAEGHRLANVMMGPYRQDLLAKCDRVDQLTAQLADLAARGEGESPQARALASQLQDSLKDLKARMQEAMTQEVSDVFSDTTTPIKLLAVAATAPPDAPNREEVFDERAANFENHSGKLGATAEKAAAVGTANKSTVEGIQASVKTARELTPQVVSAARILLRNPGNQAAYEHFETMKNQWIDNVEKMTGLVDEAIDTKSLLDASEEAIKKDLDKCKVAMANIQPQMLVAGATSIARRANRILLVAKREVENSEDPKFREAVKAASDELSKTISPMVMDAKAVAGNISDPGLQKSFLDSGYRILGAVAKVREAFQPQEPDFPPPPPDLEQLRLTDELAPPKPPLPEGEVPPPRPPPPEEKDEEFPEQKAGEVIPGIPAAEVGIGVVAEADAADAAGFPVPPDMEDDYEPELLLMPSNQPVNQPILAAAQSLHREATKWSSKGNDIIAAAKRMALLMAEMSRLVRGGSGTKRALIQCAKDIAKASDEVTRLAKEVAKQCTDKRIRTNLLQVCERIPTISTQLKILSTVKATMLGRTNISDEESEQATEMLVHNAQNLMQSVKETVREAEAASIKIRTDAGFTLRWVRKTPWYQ
# Target: T1, metavinculin-ΔH1 (lacking residues …)
# Experiment: pull-down; GST-Vt (0.5 µM) on GST-Sepharose beads, with or without pre-incubation with 5 µM PIP2; 15 µM His8-tagged metavinculin or deletion mutant pre-activated with talin-VBS3, 1 hr 37°C; 20 mM Tris-HCl pH 8, 150 mM NaCl; eluted with glutathione, SDS-PAGE, Western blot
# Conditions: both partners purified
binder,measurement,value
"GST tagged vinculin tail domain (GST-Vt; residues 879–1,066) (domain or fragment, human, UniProt P18206-2 879-1066, looked up, human vinculin tail domain, residues 879-1,066 of vinculin (1,066-residue isoform), cloned in pGEX-4T-1; source: E. coli BL21-DE3, purified (GSTrap FF, Superdex 75)) EEKDEEFPEQKAGEVINQPMMMAARQLHDEARKWSSKGNDIIAAAKRMALLMAEMSRLVRGGSGTKRALIQCAKDIAKASDEVTRLAKEVAKQCTDKRIRTNLLQVCERIPTISTQLKILSTVKATMLGRTNISDEESEQATEMLVHNAQNLMQSVKETVREAEAASIKIRTDAGFTLRWVRKTPWYQ",binding result,binds
